Our source for the binding result and Kd values is patent US20240319212A1 (IMMUNDIAGNOSTIK, published 2024).

B1: Human RAP (ligand, UniProt P30533 35-357, looked up)
chain: YSREKNQPKPSPKRESGEEFRMEKLNQLWEKAQRLHLPPVRLAELHADLKIQERDELAWKKLKLDGLDEDGEKEARLIRNLNVILAKYGLDGKKDARQVTSNSLSGTQEDGLDDPRLEKLWHKAKTSGKFSGEELDKLWREFLHHKEKVHEYNVLLETLSRTEEIHENVISPSDLSDIKGSVLHSRHTELKEKLRSINQGLDRLRRVSHQGYSTEAEFEEPRVIDLWDLAQSANLTDKELEAFREELKHFEAKIEKHNHYQKQLEIAHEKLRHAESVGDGERVSRSREKHALLEGRTKELGYTVKKHLQDLSGRISRARHNEL
B2: soluble recombinant megalin M2 fragment (amino acids 1024-1429 of human LRP2/megalin, C-terminal 6x His tag) (receptor)
chain: EQCGLFSFPCKNGRCVPNYYLCDGVDDCHDNSDEQLCGTLNNTCSSSAFTCGHGECIPAHWRCDKRNDCVDGSDEHNCPTHAPASCLDTQYTCDNHQCISKNWVCDTDNDCGDGSDEKNCNSTETCQPSQFNCPNHRCIDLSFVCDGDKDCVDGSDEVGCVLNCTASQFKCASGDKCIGVTNRCDGVFDCSDNSDEAGCPTRPPGMCHSDEFQCQEDGICIPNFWECDGHPDCLYGSDEHNACVPKTCPSSYFHCDNGNCIHRAWLCDRDNDCGDMSDEKDCPTQPFRCPSWQWQCLGHNICVNLSVVCDGIFDCPNGTDESPLCNGNSCSDFNGGCTHECVQEPFGAKCLCPLGFLLANDSKTCEDIDECDILGSCSQHCYNMRGSFRCSCDTGYMLESDGRTCKHHHHHH
notes: Expressed in and secreted by HEK cells, with the signal peptide removed; It tends to dimerise and is the fragment most easily dissociated to monomer; also called E1024-K1429
B3: DBP-1,25(OH)VD3 complex (ligand)
chain: LERGRDYEKNKVCKEFSHLGKEDFTSLSLVLYSRKFPSGTFEQVSQLVKEVVSLTEACCAEGADPDCYDTRTSALSAKSCESNSPFPVHPGTAECCTKEGLERKLCMAALKHQPQEFPTYVEPTNDEICEAFRKDPKEYANQFMWEYSTNYGQAPLSLLVSYTKSYLSMVGSCCTSASPTVCFLKERLQLKHLSLLTTLSNRVCSQYAAYGEKKSRLSNLIKLAQKVPTADLEDVLPLAEDITNILSKCCESASEDCMAKELPEHTVKLCDNLSTKNSKFEDCCQEKTAMDVFVCTYFMPAAQLPELPDVELPTNKDVCDPGNTKVMDKYTFELSRRTHLPEVFLSKVLEPTLKSLGECCDVEDSTTCFNAKGPLLKKELSSFIDKGQELCADYSENTFTEYKKKLAERLKAKLPDATPTELAKLVNKHSDFASNCCSINSPPLYCDSEIDAELKNIL
modifications: The protein carries the red fluorescent dye NT-647 (positions not stated). 1,25(OH)2 vitamin D3 is bound non-covalently and cannot be written in letters. It is a natural glycoprotein.
notes: also called DBP:1,25(OH)2D3
B4: complex of vitamin D binding protein with 25-hydroxyvitamin D3 (DBP:25(OH)D3) (ligand, human, UniProt P02774 17-474, looked up)
chain: B3 chain
notes: Same protein as m4, occupied by the small molecule 25(OH)D3; Both are treated as this one entry; also called DBP:VD3; DBP/VD3
B5: vitamin D binding protein (DBP) alone, without added vitamin D metabolite (ligand, human, UniProt P02774 17-474, looked up)
chain: B3 chain
notes: also called apoprotein DBP; non-complexed DBP

The target in assay [1] is B2. The assay is described as follows: peptide array of megalin M2 region; major binding epitopes of megalin ligands.
The target of assay [2] is T1, complex of vitamin D binding protein with 25-hydroxyvitamin D2 (DBP:25(OH)VD2) (human, UniProt P02774 17-474).
T1 construct: Same protein as m4; 50 nM NT-647-labelled DBP was mixed with 37.8 nM metabolite; also called DBP-VD2
T1 sequence (looked up): B3 chain
The assay is described as follows: MST, NT-647-labelled DBP (50 nM) mixed with 25(OH)VD2 (37.8 nM), megalin M2 titrated.

The target of assay [3] is B4. In words: MST, NT-647-labelled DBP (50 nM) with VD3 (50 nM), megalin fragment titrated.
For assay [4], the target named is B4. The assay is described as follows: MST, NT-647-labelled DBP (50 nM) mixed with 25(OH)VD3 (37.8 nM), megalin M2 titrated.
In assay [5] the target is T2, Human Albumin-His-tag (human, UniProt P02768 25-609).
T2 construct: not shown: His-tag
In words: peptide array of megalin M2 region; major binding epitopes of megalin ligands.

Assay [6] has as its target Human C1q (human, UniProt P02745 23-245; P02746 28-253; P02747 29-245). The assay is described as above.
In assay [7] the target is T3, complex of vitamin D binding protein with the 3C-epimer of 25(OH)D3 (human, UniProt P02774 17-474).
T3 construct: Same protein as m4, occupied by the epimer; also called DBP:3-epi-25(OH)D3
T3 sequence (looked up): B3 chain
The assay is described as follows: microscale thermophoresis; NT-647-labelled DBP (50 nM) mixed with the vitamin D metabolite (37.8 nM), here 3epi25(OH)VD3; purified megalin M2 titrated. In general terms: Microscale thermophoresis detects binding through changes in fluorescence in a small temperature gradient.

In assay [8] the target is B5. In words: MST, NT-647-labelled DBP (50 nM), megalin fragment titrated, absence of 25-OH vitamin D3; microscale thermophoresis; NT-647-labelled DBP, purified soluble M2 titrated 0.488-1000 nmol/L; absence of 25-OH vitamin D3.
The target of assay [9] is T4, complex of vitamin D binding protein with 24,25-dihydroxyvitamin D (DBP-24,25VD) (human, UniProt P02774 17-474).
T4 construct: Same protein as m4; 50 nM NT-647-labelled DBP was mixed with 37.8 nM metabolite; also called DBP:24,25(OH)VD
T4 sequence (looked up): B3 chain
The assay is described as follows: MST, NT-647-labelled DBP (50 nM) mixed with 24,25VD (37.8 nM), megalin M2 titrated.

Assay [10] concerns the target B2. The assay is described as follows: microscale thermophoresis; NT-647-labelled DBP mixed with 1,25(OH)VD3; purified megalin M2 titrated (set-up as in paragraph 103).
The target of assay [11] is T5, soluble recombinant megalin M3 fragment (amino acids 2698 to 3192 of human LRP2/megalin, C-terminal 6x His … (human, UniProt P98164 2698-3192)).
T5 construct: Expressed in HEK 293 cells and secreted, with the signal peptide removed; It tends to dimerise; also called E2698-R3192
T5 sequence: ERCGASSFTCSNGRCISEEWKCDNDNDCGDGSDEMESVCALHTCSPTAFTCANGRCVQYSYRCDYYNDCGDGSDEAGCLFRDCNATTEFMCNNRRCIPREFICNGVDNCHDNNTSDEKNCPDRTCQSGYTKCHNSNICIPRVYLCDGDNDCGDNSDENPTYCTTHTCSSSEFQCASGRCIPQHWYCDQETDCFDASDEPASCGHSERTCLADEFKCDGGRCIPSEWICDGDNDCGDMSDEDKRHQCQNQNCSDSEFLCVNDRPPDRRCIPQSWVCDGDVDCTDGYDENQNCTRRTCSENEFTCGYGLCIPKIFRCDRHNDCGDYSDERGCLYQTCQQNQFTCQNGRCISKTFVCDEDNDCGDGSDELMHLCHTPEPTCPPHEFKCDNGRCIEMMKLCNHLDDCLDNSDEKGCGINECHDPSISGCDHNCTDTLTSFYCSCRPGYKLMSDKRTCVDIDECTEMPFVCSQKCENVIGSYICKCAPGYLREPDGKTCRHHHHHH
In words: co-immunoprecipitation with lysate of HEK cells expressing M3; pull-down with anti-His antibody beads; Western blot with anti-DBP antibody. On the technique in general: In western blotting, separated proteins are transferred to a membrane and probed.

Human C1q, sequence (P02745 23-245 limits assumed, chain 1 of 3): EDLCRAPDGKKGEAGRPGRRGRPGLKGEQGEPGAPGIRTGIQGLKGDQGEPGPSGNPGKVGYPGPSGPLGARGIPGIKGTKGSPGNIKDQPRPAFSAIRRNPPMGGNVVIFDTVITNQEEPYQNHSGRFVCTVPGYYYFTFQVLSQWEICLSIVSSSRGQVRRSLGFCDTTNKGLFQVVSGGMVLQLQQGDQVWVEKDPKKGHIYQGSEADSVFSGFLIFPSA
Human C1q, sequence (P02746 28-253 limits assumed, chain 2 of 3): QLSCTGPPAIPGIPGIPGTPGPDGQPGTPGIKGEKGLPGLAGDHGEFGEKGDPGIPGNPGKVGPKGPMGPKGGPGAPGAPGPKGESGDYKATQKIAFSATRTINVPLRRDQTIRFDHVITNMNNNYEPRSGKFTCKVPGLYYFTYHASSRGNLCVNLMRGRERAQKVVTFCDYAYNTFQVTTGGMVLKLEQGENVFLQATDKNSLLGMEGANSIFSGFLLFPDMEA
Human C1q, sequence (P02747 29-245 limits assumed, chain 3 of 3): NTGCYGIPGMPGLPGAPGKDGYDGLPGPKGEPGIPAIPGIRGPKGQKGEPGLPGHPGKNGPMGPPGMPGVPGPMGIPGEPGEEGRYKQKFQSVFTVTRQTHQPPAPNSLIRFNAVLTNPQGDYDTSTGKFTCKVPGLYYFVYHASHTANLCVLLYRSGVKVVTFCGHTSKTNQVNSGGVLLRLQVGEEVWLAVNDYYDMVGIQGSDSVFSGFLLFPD
T2 sequence (P02768 25-609 limits assumed): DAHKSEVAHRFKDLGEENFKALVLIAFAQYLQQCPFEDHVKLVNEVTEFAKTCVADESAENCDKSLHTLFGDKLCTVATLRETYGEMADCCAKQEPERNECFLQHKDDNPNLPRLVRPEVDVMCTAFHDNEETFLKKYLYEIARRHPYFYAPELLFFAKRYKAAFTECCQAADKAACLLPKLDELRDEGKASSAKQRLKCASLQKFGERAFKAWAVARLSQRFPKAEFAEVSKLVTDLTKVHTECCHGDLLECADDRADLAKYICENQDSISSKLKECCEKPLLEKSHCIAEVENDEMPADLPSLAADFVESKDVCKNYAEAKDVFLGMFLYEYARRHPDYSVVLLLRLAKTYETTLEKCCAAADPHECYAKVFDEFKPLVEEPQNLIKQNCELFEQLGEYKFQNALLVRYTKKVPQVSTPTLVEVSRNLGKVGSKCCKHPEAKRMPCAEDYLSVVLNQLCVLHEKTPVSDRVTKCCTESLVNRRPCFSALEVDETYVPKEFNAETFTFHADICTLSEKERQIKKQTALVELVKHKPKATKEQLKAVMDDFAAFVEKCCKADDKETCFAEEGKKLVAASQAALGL

With B1, the binding result in [1] was “binds”.
The Kd is the free concentration of one partner at which half of the binding sites on the other are occupied at equilibrium, for simple one-to-one binding. As for B2, the Kd stood at 160 nM in assay [2]; 23.7 nM in assay [3]; 33.7 nM in assay [4]; 5.86 nM in assay [7]; 134 nM in assay [8]; 171 nM in assay [9]. Also, the binding result in [5] and in assay [6] was “binds” each time.
Regarding B3, in [10], the equilibrium dissociation constant (Kd) was 18.1 nM.
In the case of B4, in assay [11], the binding result is “no binding (tested: DBP 0,5 µg with VD3 0,2 µg)”.
Same read-out and setting: then B5, with “no binding (tested: DBP 0,5 µg)”.
